Molecular target: recombinant human PCSK9^D374Y protein (human), Q8NBP7
Experiment: cell-based or functional assay

LDL (%), LDL uptake by HepG2 cells; antibody 0.67 nM: 20%
LDL (%), LDL uptake by HepG2 cells; antibody 6.67 nM: 43.8%
LDL (%), LDL uptake by HepG2 cells; antibody 66.70 nM: 86.4%
B1: 103C11E8, chimeric anti-PCSK9 antibody from hybridoma (antibody, V domains shown)
VH: QVQLQESGPGLVKPSGTLSLTCAVSGGSISSSNWWSWVRQPPGKGLEWIGEIYHSGSTNYNPSLKSRVTISVDKSKNQFSLKLSSVTAADTAVYYCARGIAVAGTDVMDAWGQGASVTVSS
VL: EIVLTQSPATLSLSPGERATLSCRASQSVSSYLVWYQQKSGQAPRLLIYGTSNRATGIPARFSGSGSGTDFTLTISSLEPEDFALYYCQQRGNWMYTFGQGTKLEIK
modifications: here or on the partner: biotinylated in the ELISA assays
